“Also recorded” adds a separate entry of the source. [C3] = C3 (propyl) spacer linking the 3' end of the DNA aptamer to the passenger RNA
Assays:
[1] = test system: MDA-MB-231 xenograft tumors; experiment: MDA-MB-231 xenograft in NSG mice; type: in vivo, mouse
Text: Xenograft model were generated 8-weeks old female immune-deficient NOD-scid IL2Rgamma^null (NSG™, Jackson Laboratories, Bar Harbar, Me., USA) using human breast cancer cell line. Syngeneic TUBO tumors were established in 8-weeks old female BALB/c mice (from Charles River Animal Facility, Frederick, Md., USA). These tumor-bearing mice were randomly assigned to each treatment group. Eight-week old male C57BL/6 mice and C57BL/6 ly5.2 mice (from Charles River Animal Facility, Frederick, Md., USA) were used for bone marrow transplantation assay. The mouse groups assigned for each treatment were not blinded. No statistical methods were used to pre-determined sample size for the analysis of mouse experiments. All the mice were maintained in the Research Animal Facility at Children's National Institute, Children's National Medical Center. The committee on the Use and Care of Animal at Children's National Institute approved all procedures involving experimental animals.
For xenograft models, the NSG mice and BALB/c mice were subcutaneously injected with 2×10^6 viable MDA-MB-231 cells and TUBO cells in their right hind limbs, respectively. After the tumor grew to 1 cm in diameter, mice were randomly divided into the groups for each treatment. For no treatment control, 100 μl saline with 1% mouse serum was intravenously injected through tail vein. For treatment groups, 670 pmol/20 g chimeras and/or 5(0 mg/kg 5-fluorouracil (5-FU), or 120 mg/kg carboplatin were also intravenously injected. Tumor sizes were measured in two dimensions every 3 days. Tumor volume (V) was calculated using the following formula: V=(½) S^2×L (S. the shortest dimension; L, the longest dimension). Animals were euthanized when the tumor size was over 2 cm diameters, tumor ulcerated, or became necrotic. For chimera treatment in normal mice, C57BL/6 mice were treated with miR-26a chimera (670 pmol/20 g) everyday for 3 days by intravenous injection. At day 2, 150 mg/kg 5-FU and/or 120 mg/kg carboplatin was injected together with the chimera. Peripheral bloods were collected at day 5 and day 10 after the 5-FU treatment. Complete blood counts were measured by Hemavet 950FS (Drew Scientific, Miami Lakes, Fla., USA).

[2] = test system: MDA-MB-231 cells; experiment: miR-26a delivery into MDA-MB-231 cells, qPCR; type: cell-based, human; settings: two days after incubation, compared to control chimera
Text: Total RNAs from cell lines and mouse tissues were extracted by RNeasy Plus Mini kit (Qiagen, Valencia, Calif., USA). miR-26a levels were quantified by Taqman microRNA assay (assay ID; 000405) that covered both has-miR-26a-5p and mmu-miR-26a-5p (Thermo Fisher Scientific) according to manufacturer's protocol. U6 snRNA (Taqman microRNA assay, assay ID; 001973) was used as endogenous control. For qPCR of other genes, cDNAs were synthesized from the purified total RNA with qScript cDNA supermix (Quanta Bio, Gaithersburg, Md., USA). Real-time PCR was performed with Power SYBR Green PCR master mix (Thermo Fisher Scientific) on 7500 Real Time PCR system (Thermo Fisher Scientific). Sequence primers for mouse Bak were […] (forward) (SEQ ID NO: 11) and […] (reverse) (SEQ ID NO:12). For mouse Ezh2, […] (forward) (SEQ ID NO:13) and […] (reverse) (SEQ ID NO:14). For mouse Actb, […] (forward) (SEQ ID NO:15) and […] (reverse) (SEQ ID NO:16) were used as endogenous control.

[3] = test system: EZH2 protein; experiment: EZH2 immunoblot in chimera-treated MDA-MB-231 cells; type: cell-based, human; settings: 167 nM chimeras for 2 days
Protocol: The cell lysate from MDA-MB-231 cells treated with 167 nM chimeras for 2 days were fractionated by SDS-PAGE and then transferred to PVDF membrane (EMD Millipore, Billerica, Mass., USA). Following blocking with 5% FBS in tris-buffered saline, the membrane was incubated with primary antibody against EZH2 (D2C2) and Histone H3 (Cat #9715) (Cell Signaling Technologies, Danvers, Mass., USA) overnight at 4° C. and then incubated with horseradish peroxidase-conjugated anti-mouse and rabbit IgGs (Thermo Fisher Scientific) for 1 hr. respectively. The antigen-antibody immunoreactivity was detected in ChemiDoc Touch Imaging System (Bio-Rad Hercules, Calif., USA) using SuperSignal West Pico Chemiluminescent Substrate (Thermo Fisher Scientific).

[4] = test system: MDA-MB-231 cells; experiment: Growth and apoptosis of MDA-MB-231 cells cultured with chimera; type: cell-based, human; settings: 3 days of culture
Text: FIG. 1A-FIG. 1H show identification and validation of KIT-targeting miR-26a chimera that inhibits human breast cancer growth in vitro and in vivo. FIG. 1A is a graph showing the overall survival of basal-like breast cancer patients with higher or lower expression of miR-26a-2 based on the expression scores comparing to the mean value in TCGA cohort. FIG. 1B is a graph showing the binding of anti-KIT antibody and KIT DNA aptamer to MDA-MB-231 cell line. Other cell targeting aptamer is specific for Ramos cells. FIG. 1C depicts the secondary structure of KIT aptamer-miR-26a chimera. KIT DNA aptamer was linked with C3 linker to RNA passenger sequence that was complimentary binds to miR-26a mimic sequence. Another RNA passenger sequence binding to the 3′ of miR-26 mimic was conjugated with TEG-cholesterol. FIG. 1D is a graph showing specific miR-26a delivery by the miR-26a chimera. […] After 3 days of culture with miR-26a chimera or control chimera, MDA-MB-231 cell numbers (left) were counted using hemocytometer and Annexin V positive cells (%) (right) was determined by flow cytometry. […]
For aptamer binding assay, streptavidin-APC (Cat #554067) […] Bioscience, San Jose, Calif., USA) was used for detecting the biotin-conjugated aptamers by flow cytometry. […] Flow cytometry analysis was performed on FACS Canto II (BD Bioscience) and the data were analyzed with FlowJo (FLOWJO, Ashland, Oreg., USA). […]

[5] = test system: MDA-MB-231 cell line; experiment: Aptamer binding assay to MDA-MB-231 cells by flow cytometry; parameters: species or system human; settings: biotin-conjugated aptamer
Protocol: DNA sequences for anti-human KIT aptamer (21) and mouse c-Kit aptamers (22) conjugated with biotin at 3′ were functionalized by short denaturation-renaturation step (95° C. 10 min, 5 min snap-cooling on ice). These DNA sequences were 5′-[…] […]-3′ (SEQ ID NO: 2) for human KIT, 5′-[…]-3′ (SEQ ID NO:3) for mouse c-Kit. These activated aptamers were used for binding assay to the cell lines by flow cytometry. For chimera preparation, human KIT-aptamer or mouse c-Kit-aptamer miR-26a chimera was assembled by three compartments of DNA/RNA hybrid sequences. The sequences were 5′-[…] […]/C3 (SEQ ID NO:4) spacer/CCUAUUCUGG-3′(SEQ ID NO:5) for human KIT aptamer+the part of passenger sequence for miR-26a-5p, 5′-[…]/C3 (SEQ ID NO:6) spacer/CCUAUUCUGG-3′ (SEQ ID NO:7) for mouse cKit aptamer+the part of passenger sequence for miR-26a-5p, 5′-GUUACUUGCACG/TEG (triethylene glycol)-Cholesterol-3′ (SEQ ID NO:8) for the part of sequence for miR-26a-5p+cholesterol, and 5′-[…]-3′ (SEQ ID NO:9) for guide sequence for miR-26a-5p (RNA sequences were represented as italic). The guide sequence for scramble control was […] (SEQ ID NO:10). To protect the oligonucleotide sequences from nuclease degradation, phosphorothioate bonds were introduced between the last 3 nucleotides at the 5′-end of DNA aptamers. The RNA sequences were modified with 2′-fluoro-uridines. […]

Row | Molecule | tumor growth (tumor volume) ([1]; 5 or 10 daily intravenous injections, 670 pmol/20 g) | survival ([1]; 5 or 10 daily intravenous injections, 670 pmol/20 g, log-rank test vs control chimera) | miR-26a in KIT+ tumor cells ([1]; NSG mice, MDA-MB-231 tumor, 3 days after intravenous injection 670 pmol/20 g, qPCR) | miR-26a in KIT tumor cells (KIT-negative population) ([1]; NSG mice, MDA-MB-231 tumor, 3 days after single injection, qPCR) | miR-26a expression in the MDA-MB-231 cells [2] | EZH2 protein expression [3] | Annexin V positive cells (apoptosis) of MDA-MB-231 cells ([4]; flow cytometry) | MDA-MB-231 cell numbers (growth) ([4]; hemocytometer) | binding to MDA-MB-231 cell line [5]
1 | KIT-targeting miR-26a chimera: anti-human KIT DNA aptamer-C3-passenger RNA, passenger RNA-TEG-cholesterol and miR-26a-5p guide strand annealed (SEQ ID NO:4/5, 8, 9) (nucleic acid, chain 1: DNA, 3' [C3], backbone not given here; chain 2: chemistry not given here; chain 3: chemistry not given here; guide: chemistry not given here; DNA aptamer joined by C3 spacer to passenger RNA, annealed three-part chimera) chain 1: GAGGCATACCAGCTTATTCAAGGGGCCGGGGCAAGGGGGGGGTACCGTGGTAGGACATAGTAAGTGCAATCTGCGAA chain 2: CCUAUUCUGG chain 3: GUUACUUGCACG guide: UUCAAGUAAUCCAGGAUAGGCU | significantly suppressed the tumor growth | extended their survival | Significant increase; also recorded: significant elevation | No increase | significant increase; also recorded: successfully delivered miR-26a | significant suppression; also recorded: significantly suppressed | induced apoptosis; also recorded: induction of apoptosis | suppressed the growth; also recorded: inhibited cell growth | 
2 | human KIT aptamer: DNA aptamer against human KIT, SEQ ID NO:2, conjugated with biotin at 3′ for binding assay (nucleic acid, DNA, 3' {Biotin}, backbone not given here; further chemistry not fully specified) DNA: GAGGCATACCAGCTTATTCAAGGGGCCGGGGCAAGGGGGGGGTACCGTGGTAGGACATAGTAAGTGCAATCTGCGAA |  |  |  |  |  |  |  |  | confirmed the binding; also recorded: nearly identical distribution of KIT expression

Reference: patent US20200171068A1, “COMPOSITIONS COMPRISING APTAMERS AND NUCLEIC ACID PAYLOADS AND METHODS OF USING THE SAME” (Children's National Medical Center, priority 2017, published 2020)
